Measured values from patent publication US20190315845A1 (ANNEXON, published 2019).
Like-named read-outs stand apart in the source and are kept apart here. Each block holds one binder with its values, some of them ahead of it.

Experiments:
human C1q [1] = biological target: T1, human C1q (human, UniProt P02745 23-245; P02746 28-253; P02747 29-245); experiment: competition ELISA on plate-bound human C1q against biotinylated mouse M1 antibody (0.02 µg/ml); bound biotin-M1 read as OD450
T1 construct: Purified human C1q protein (plate-coated in ELISA, ligand or analyte in SPR, in human serum in CH50); also called hC1q; complement factor C1q
T1 sequence (P02745 23-245 limits assumed, chain 1 of 3): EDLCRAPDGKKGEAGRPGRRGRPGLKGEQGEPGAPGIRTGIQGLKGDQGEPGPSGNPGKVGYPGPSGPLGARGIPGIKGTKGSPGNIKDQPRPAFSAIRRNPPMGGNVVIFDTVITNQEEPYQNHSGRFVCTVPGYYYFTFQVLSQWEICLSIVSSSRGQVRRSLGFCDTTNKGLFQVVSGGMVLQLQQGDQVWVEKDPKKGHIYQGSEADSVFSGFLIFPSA
T1 sequence (P02746 28-253 limits assumed, chain 2 of 3): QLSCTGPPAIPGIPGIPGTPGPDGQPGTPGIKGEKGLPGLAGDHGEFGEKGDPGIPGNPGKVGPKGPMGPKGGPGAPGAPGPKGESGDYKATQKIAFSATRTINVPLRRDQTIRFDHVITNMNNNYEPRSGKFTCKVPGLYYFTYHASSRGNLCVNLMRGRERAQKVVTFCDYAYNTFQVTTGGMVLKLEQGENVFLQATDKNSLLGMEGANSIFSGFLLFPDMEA
T1 sequence (P02747 29-245 limits assumed, chain 3 of 3): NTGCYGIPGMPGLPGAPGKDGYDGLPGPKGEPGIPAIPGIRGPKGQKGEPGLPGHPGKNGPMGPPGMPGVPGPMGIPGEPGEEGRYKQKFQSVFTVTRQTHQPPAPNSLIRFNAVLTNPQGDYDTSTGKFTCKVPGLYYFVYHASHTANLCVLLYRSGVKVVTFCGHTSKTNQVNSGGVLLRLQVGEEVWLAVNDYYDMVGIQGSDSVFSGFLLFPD
Text: (§1) FIG. 4A, FIG. 4B, FIG. 4C, and FIG. 4D depicts competition ELISA assays for human C1q. A dilution series of purified humanized anti-C1q antibodies were competed against a fixed concentration of biotinylated monoclonal antibody M1 for binding to human C1q. Bound biotinylated M1 antibody was detected using streptavidin-peroxidase conjugate and TMB substrate. FIG. 4A depicts the results with the humanized antibodies VH1/Vκ1, VH1/Vκ2, and VH1/Vκ3. FIG. 4B depicts the results with the humanized antibodies VH1/Vκ4, VH2/Vκ1, VH2/Vκ2, VH2/Vκ3, and VH2/Vκ4. FIG. 4C depicts the results with the humanized antibodies VH3/Vκ1, VH3/Vκ2, VH3/Vκ3, and VH3/Vκ4. FIG. 4D depicts the results with the humanized antibodies VH4/Vκ1, VH4/Vκ2, […], and VH4/Vκ4.
(§2) The binding of humanized M1 variants to human C1q was analyzed by competition ELISA. A three-fold dilution series of test antibody (5 μg/ml to 0.002 μg/ml) was premixed with a constant concentration of biotinylated mouse M1 antibody (0.02 μg/ml, final concentration) before incubating for 1 hour at 37° C. with shaking on plates pre-coated with human C1q at 1.0 μg/ml. The binding of mouse M1 antibody was detected with streptavidin-peroxidase conjugate (Sigma-Aldrich cat. no. 55512) and TMB (3,3′,5,5′-tetramethylbenzidine) substrate (Thermo Scientific cat. no. 34029). The reaction was stopped with 1M HCl, absorbance read at 450 nm on a Dynex Technologies MRX TC II plate reader and the binding curves plotted.

human C1q [2] = biological target: T1, human C1q; experiment: as above; remark: listed apart in the source
Text: as §1, §2

human C1q [3] = biological target: T1, human C1q; experiment: competition ELISA, plate-coated human C1q; competitor biotinylated mouse M1 (0.02 µg/ml); IC50 normalised to chimeric M1 (reference itself)
Protocol: as §2
The binding curves were used to calculate IC₅₀ values (concentration of test antibody that inhibits labelled competitor binding by 50%) for each antibody normalized to the IC₅₀ of chimeric M1 and antibody yields from NS0 transfectants were also compared (Table 1).

human C1q [4] = biological target: T1, human C1q; experiment: competition ELISA on plate-bound human C1q against biotinylated mouse M1 antibody (0.02 µg/ml); bound biotin-M1 read as OD450; remark: listed apart in the source
Text: as §1, §2

human C1q [5] = biological target: T1, human C1q; experiment: as above; remark: listed apart in the source
Text: as §1, §2

mouse C1q [6] = biological target: T2, mouse C1q (mouse, UniProt P98086 23-245; P14106 26-253; Q02105 30-246); experiment: competition ELISA, plate-coated mouse C1q; competitor biotinylated chimeric M1 (0.03 µg/ml); IC50 normalised to chimeric M1 (reference itself)
T2 construct: Purified mouse C1q protein; also called mC1q
T2 sequence (P98086 23-245 limits assumed, chain 1 of 3): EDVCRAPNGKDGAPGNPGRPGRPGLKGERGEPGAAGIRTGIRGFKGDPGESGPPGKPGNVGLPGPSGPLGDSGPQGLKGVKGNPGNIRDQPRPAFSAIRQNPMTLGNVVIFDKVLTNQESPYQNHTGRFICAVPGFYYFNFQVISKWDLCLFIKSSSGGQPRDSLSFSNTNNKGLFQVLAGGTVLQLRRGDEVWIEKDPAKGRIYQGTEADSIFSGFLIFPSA
T2 sequence (P14106 26-253 limits assumed, chain 2 of 3): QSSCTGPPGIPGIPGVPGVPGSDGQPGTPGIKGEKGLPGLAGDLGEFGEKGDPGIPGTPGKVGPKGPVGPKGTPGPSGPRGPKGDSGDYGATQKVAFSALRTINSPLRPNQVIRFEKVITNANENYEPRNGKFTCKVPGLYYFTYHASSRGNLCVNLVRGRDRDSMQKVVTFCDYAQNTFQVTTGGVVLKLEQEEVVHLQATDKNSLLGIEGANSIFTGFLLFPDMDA
T2 sequence (Q02105 30-246 limits assumed, chain 3 of 3): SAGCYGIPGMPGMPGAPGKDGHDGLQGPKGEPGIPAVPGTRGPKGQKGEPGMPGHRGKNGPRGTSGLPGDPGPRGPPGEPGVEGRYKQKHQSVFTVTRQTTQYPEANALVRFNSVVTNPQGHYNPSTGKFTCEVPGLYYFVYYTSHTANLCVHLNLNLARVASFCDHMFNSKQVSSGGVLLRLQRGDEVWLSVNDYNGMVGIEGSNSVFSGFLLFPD
Protocol: (§3) The binding of humanized M1 variants to mouse C1q was analyzed by competition ELISA on four selected antibodies, VH1/Vκ1, VH3/Vκ1, VH3/Vκ4 and VH4/Vκ3. An irrelevant IgG4 (S241P L248E) antibody was also included as a binding control. A three-fold dilution series of test antibody (100 μg/ml to 0.046 μg/ml) was premixed with a constant concentration of biotinylated chimeric M1 antibody (0.03 μg/ml, final concentration) before incubating for 1 hour at 37° C. with shaking on plates pre-coated with mouse C1q at 5.0 μg/ml. The binding of chimeric M1 antibody was detected with streptavidin-peroxidase conjugate (Sigma-Aldrich cat. no. S5512) and TMB substrate (Thermo Scientific cat. no. 34029). The reaction was stopped with 1M HCl, absorbance read at 450 nm on a Dynex Technologies MRX TC II plate reader and the binding curves plotted.
(§4) The binding curves were used to calculate IC₅₀ values for each antibody normalized to the IC₅₀ of chimeric M1 (Table 2).

mouse C1q [7] = biological target: T2, mouse C1q; experiment: competition ELISA on plate-bound mouse C1q against biotinylated chimeric M1 antibody (0.03 µg/ml); bound biotin-chimeric M1 read as OD450
Protocol: as §3, §4

mouse C1q [8] = biological target: T2, mouse C1q; experiment: SPR Biacore T200, 1:1 model; mC1q immobilised (ligand), Fab analyte; mean of 2 independent analyses
Protocol: (§5) Due to concerns about stability, two chips were prepared; one with hC1q and mC1q (Chip All) as ligands and one with IgG and Fab (Chip A13) as ligands Immobilization for m/h C1q was carried out at a protein concentration of 5 μg/ml in 10 mM acetate buffer pH 5.5, whereas immobilization for IgG and Fab was carried out at a protein concentration of 0.5-2 μg/ml in 10 mM acetate buffer pH 5.0, both on a CMS Series S sensor chip (Biacore).
(§6) Both C1q complexes were immobilized based on concerns over avidity (i.e., two immobilized antibodies binding C1q), and the very high levels of NSB observed using mC1q and to a lesser extent hC1q to the CM5 surface (charge mediated estimated C1q: pI 8-9). Single cycle kinetics (SCK) were used initially to derive estimated kinetic constants due to uncertainty over the stability of the C1q complex and the regeneration conditions. Full kinetic analysis was performed after SCK. The ligand stability control injections performed during the kinetic run indicated either the regeneration conditions used were inactivating the ligand, or the ligand itself was unstable at 25° C. during the 48 hours required for kinetic analysis.
(§7) The association phase was monitored for 500 seconds to allow some of the higher concentrations of analyte to reach steady state. In order to observe a sufficient signal decrease (>10%) during the dissociation phase of the kinetic cycle, dissociation was measured for up to 10,800 seconds to allow sufficient dissociation to occur for accurate assessment of the kinetics. The signal from the reference channel Fₑ1 was subtracted from that of Fₑ2, Fₑ3, and Fₑ4.

mouse C1q [9] = biological target: T2, mouse C1q; experiment: SPR Biacore T200, 1:1 model; mC1q immobilised (ligand), Fab analyte; analysis 2
Protocol: as §5, §6, §7

human C1q [10] = biological target: T1, human C1q; experiment: SPR Biacore T200, heterogeneous ligand model, kd2; hC1q immobilised (ligand), Fab analyte
Protocol: as §5
(§8) The kinetic parameters for both the IgG and Fab interactions with hC1q were in the low picomolar range (Table 6 for 1-to-1 model and Table 7 for the heterogeneous model). In order to avoid avidity, hC1q was initially used as the ligand, however this limited the analysis to single cycle kinetics and the use of more complex models, for example, heterogeneous ligand binding models (Equation 3), that may represent the different forms of hC1q structure that were associated with chemical coupling of a multi-subunit protein to a surface. When hC1q was used as the analyte both IgG and Fab were immobilized at the lowest concentrations possible to avoid avidity. The data was analyzed using a 1-to-1 model and a more complex bivalent analyte model (Equation 4). […] It should be noted that the dissociation rate was too slow to measure accurately with this technique. […]

human C1q [11] = biological target: T1, human C1q; experiment: SPR Biacore T200, 1:1 model, single cycle kinetics; hC1q immobilised (ligand), Fab analyte
mouse C1q [12] = biological target: T2, mouse C1q; experiment: SPR Biacore T200, 1:1 model; Fab immobilised (ligand), mC1q analyte; analysis 1
human C1q [13] = biological target: T1, human C1q; experiment: SPR Biacore T200, heterogeneous ligand model, KD2; hC1q immobilised (ligand), Fab analyte
Protocol: as §5, §8

mouse C1q [14] = biological target: T2, mouse C1q; experiment: SPR Biacore T200, 1:1 model; Fab immobilised (ligand), mC1q analyte; analysis 2
human C1q [15] = biological target: T1, human C1q; experiment: SPR Biacore T200, 1:1 model; Fab immobilised (ligand), hC1q analyte
human C1q [16] = biological target: T1, human C1q; experiment: SPR Biacore T200, heterogeneous ligand model, ka1; hC1q immobilised (ligand), Fab analyte
Protocol: as §5, §8

mouse C1q [17] = biological target: T2, mouse C1q; experiment: SPR Biacore T200, 1:1 model; mC1q immobilised (ligand), Fab analyte; analysis 1
human C1q [18] = biological target: T1, human C1q; experiment: SPR Biacore T200, heterogeneous ligand model, KD1; hC1q immobilised (ligand), Fab analyte
Protocol: as §5, §8

human C1q [19] = biological target: T1, human C1q; experiment: SPR Biacore T200, heterogeneous ligand model, ka2; hC1q immobilised (ligand), Fab analyte
Protocol: as §5, §8

human C1q [20] = biological target: T1, human C1q; experiment: SPR Biacore T200, heterogeneous ligand model, kd1; hC1q immobilised (ligand), Fab analyte
mouse C1q [21] = biological target: T2, mouse C1q; experiment: SPR Biacore T200, 1:1 model; Fab immobilised (ligand), mC1q analyte; mean of 2 independent analyses
Protocol: as §5, §7

IC50 (read off the curve) (human C1q [1]): ~0.3 µg/mL
IC50 (read off the curve) (human C1q [2]): ~0.3 µg/mL
Relative IC50 (human C1q [3]): 1 ratio to chimeric M1
IC50 (read off the curve) (human C1q [4]): ~0.3 µg/mL
IC50 (read off the curve) (human C1q [5]): ~0.3 µg/mL
Relative IC50 (mouse C1q [6]): 1 ratio to chimeric M1
IC50 (read off the curve) (mouse C1q [7]): ~3 µg/mL
B1: chimeric M1 antibody (antibody, human IgG4)
heavy: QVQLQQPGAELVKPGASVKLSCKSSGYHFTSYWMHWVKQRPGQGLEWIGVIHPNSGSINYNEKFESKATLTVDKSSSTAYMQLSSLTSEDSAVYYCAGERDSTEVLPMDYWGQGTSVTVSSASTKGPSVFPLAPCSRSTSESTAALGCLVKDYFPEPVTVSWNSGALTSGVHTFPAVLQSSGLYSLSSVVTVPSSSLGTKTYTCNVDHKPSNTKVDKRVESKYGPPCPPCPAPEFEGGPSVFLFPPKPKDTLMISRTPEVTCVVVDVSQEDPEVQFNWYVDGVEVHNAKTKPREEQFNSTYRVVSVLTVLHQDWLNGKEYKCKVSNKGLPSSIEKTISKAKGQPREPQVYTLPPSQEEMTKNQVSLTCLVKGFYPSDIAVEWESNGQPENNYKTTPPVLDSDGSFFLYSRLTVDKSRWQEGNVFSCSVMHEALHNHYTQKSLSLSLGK
light: DVQITQSPSYLAASPGETITINCRASKSINKYLAWYQEKPGKTNKLLIYSGSTLQSGIPSRFSGSGSGTDFTLTISSLEPEDFAMYYCQQHNEYPLTFGAGTKLELK
notes: Murine M1 V regions with human IgG4 (S241P L248E) and human kappa constant regions, expressed in NS0; also called 3E2; not shown: human kappa light chain constant region

Kd (mouse C1q [8]): 677 nM
koff (mouse C1q [8]): 0.0043 s⁻¹
kon (mouse C1q [8]): 6500 M⁻¹ s⁻¹
Kd (mouse C1q [9]): 607 nM
koff (mouse C1q [9]): 0.0041 s⁻¹
kon (mouse C1q [9]): 6900 M⁻¹ s⁻¹
koff (human C1q [10]): 6.3e-08 s⁻¹
Kd (human C1q [11]): < 0.192 nM
koff (human C1q [11]): < 1e-05 s⁻¹
kon (human C1q [11]): 52000 M⁻¹ s⁻¹
Kd (mouse C1q [12]): 126 nM
koff (mouse C1q [12]): 0.056 s⁻¹
kon (mouse C1q [12]): 450000 M⁻¹ s⁻¹
Kd (human C1q [13]): 3.4 nM
Kd (mouse C1q [14]): 121 nM
Kd (human C1q [15]): 0.0086 nM
koff (human C1q [15]): 9.1e-06 s⁻¹
kon (human C1q [15]): 1.1e+06 M⁻¹ s⁻¹
kon (human C1q [16]): 130000 M⁻¹ s⁻¹
Kd (mouse C1q [17]): 748 nM
koff (mouse C1q [17]): 0.0046 s⁻¹
kon (mouse C1q [17]): 6230 M⁻¹ s⁻¹
Kd (human C1q [18]): 175 nM
kon (human C1q [19]): 18000 M⁻¹ s⁻¹
koff (human C1q [20]): 2.3e-05 s⁻¹
Kd (mouse C1q [21]): 123 nM
koff (mouse C1q [21]): 0.032 s⁻¹
kon (mouse C1q [21]): 310000 M⁻¹ s⁻¹
B2: Fab fragment of humanized anti-C1q antibody VH3/Vκ3 (Fab)
heavy: QVQLVQSGAELKKPGASVKVSCKSSGYHFTSYWMHWVKQAPGQGLEWIGVIHPNSGSINYNEKFESRVTITVDKSTSTAYMELSSLRSEDTAVYYCAGERDSTEVLPMDYWGQGTTVTVSS
light: DVQITQSPSSLSASLGERATINCRASKSINKYLAWYQQKPGKAPKLLIYSGSTLQSGIPARFSGSGSGTDFTLTISSLEPEDFAMYYCQQHNEYPLTFGQGTKLEIK
notes: also called Fab VH3/Vκ3; Fab-VH3/Vκ3; not shown: CH1 part of the human IgG4 (S241P L248E) constant region left after digestion of the IgG with a Fab Micro Preparation Ki; human kappa light chain constant region
